1 molecule from patent publication US20250090677A1 (MULTITUDE THERAPEUTICS, published 2025) can be followed below.

One assay has as its target T1, rat CDH6-ECD-His (rat, UniProt P55280 54-615).
T1 construct: extracellular domain; Bought protein; not shown: His tag
T1 sequence (looked up): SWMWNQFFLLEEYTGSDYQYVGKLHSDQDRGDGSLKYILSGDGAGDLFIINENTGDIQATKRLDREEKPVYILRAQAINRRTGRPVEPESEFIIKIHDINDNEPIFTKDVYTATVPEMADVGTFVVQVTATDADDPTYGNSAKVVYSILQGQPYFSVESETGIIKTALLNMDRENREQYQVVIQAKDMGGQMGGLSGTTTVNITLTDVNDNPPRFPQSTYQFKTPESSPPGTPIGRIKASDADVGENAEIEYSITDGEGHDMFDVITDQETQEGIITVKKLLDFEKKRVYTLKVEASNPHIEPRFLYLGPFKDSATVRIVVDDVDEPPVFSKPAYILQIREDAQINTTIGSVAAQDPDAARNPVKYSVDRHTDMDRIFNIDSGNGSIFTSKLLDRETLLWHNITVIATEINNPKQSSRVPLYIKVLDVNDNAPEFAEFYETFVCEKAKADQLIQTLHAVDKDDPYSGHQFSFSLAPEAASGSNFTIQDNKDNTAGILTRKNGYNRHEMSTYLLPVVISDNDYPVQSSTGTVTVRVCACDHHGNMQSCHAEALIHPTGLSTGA
As to the kind of experiment: ELISA, antigen coated at 1 ug/mL, 3-fold antibody dilutions, HRP anti-human antibody, OD450. On the procedure:
(§1) CDH9 and […] are the most closely related family members to CDH6. Binding of CL069707-H1L1 on human CDH6, CDH9 and CDH10 ECD domains were analyzed by ELISA Binding Assay. Human […], CDH9-ECD-His and CDH10-ECD-His antigens were obtained from Acro Biosystems, Inc. 100 μL of 1 μg/mL of the antigens diluted in PBS were added to 96 well plates and incubated in 4° C. overnight. The plates were washed 3 times with 300 μL of washing buffer. Then 100 μL/well of 1% BSA blocking reagent were added to the plates, and incubated at 37° C. for 1 h then the blocking reagent were discarded. A 3-fold serial dilution of CL069707-H1L1 was added to the plates and then incubated at 37° C. for 1 h. Then the plates were washed 3 times with 300 μL of washing buffer. 100 μL/well of HRP-conjugated anti-Human antibody diluted in 1% BSA were added to the plates and then incubated at 37° C. for 1 h. The plates were washed 3 times with 300 μL of washing buffer. 100 μL/well of TMB substrate were added to the plates and incubated for about 10 min in room temperature. Then the reaction was stopped with 100 μL/well of stopping solution. OD450 was read with a plate reader and the data were processed.
(§2) Binding of CL069707-H1L1 on human, cyno monkey, mouse or rat CDH6 antigen were analyzed by ELISA. Human, cyno monkey, mouse and rat CDH6-ECD-His antigens were obtained from Acro Biosystems, Inc. ELISA were done with the same methods as in example 3.1. CL069707-H1L1 binds to human, cyno monkey, mouse and rat CDH6-ECD-His antigens with similar EC50.

The target in assay [1] is T2, Human CDH6-ECD-His (human, UniProt P55285 54-615).
T2 construct: extracellular domain; Bought protein; also called human CDH6-ECD-His recombinant protein; Human CDH6-EC6D-His; not shown: His tag
T2 sequence (looked up): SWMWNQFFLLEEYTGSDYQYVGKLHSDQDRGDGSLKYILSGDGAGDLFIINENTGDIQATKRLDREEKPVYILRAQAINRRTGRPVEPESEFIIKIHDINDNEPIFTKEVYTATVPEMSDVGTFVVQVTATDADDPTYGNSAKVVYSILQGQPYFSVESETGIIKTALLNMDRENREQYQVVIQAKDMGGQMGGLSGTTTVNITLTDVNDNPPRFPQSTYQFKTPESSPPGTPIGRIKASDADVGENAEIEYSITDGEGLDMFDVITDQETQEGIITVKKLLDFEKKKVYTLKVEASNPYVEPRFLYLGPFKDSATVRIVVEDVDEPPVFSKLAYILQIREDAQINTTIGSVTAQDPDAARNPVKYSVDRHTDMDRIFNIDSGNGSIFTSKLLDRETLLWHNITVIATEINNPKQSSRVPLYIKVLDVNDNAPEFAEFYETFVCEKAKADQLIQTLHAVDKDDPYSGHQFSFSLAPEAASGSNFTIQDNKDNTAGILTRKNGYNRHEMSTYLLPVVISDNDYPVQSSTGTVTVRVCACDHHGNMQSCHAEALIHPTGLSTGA
Described as above. On the procedure:
as §1, §2

Another assay has as its target T3, cyno monkey CDH6-ECD-His (cyno monkey, UniProt A0A2K5TW62 54-615).
T3 construct: extracellular domain; Bought protein; also called Cyno CDH6-ECD-His; not shown: His tag
T3 sequence: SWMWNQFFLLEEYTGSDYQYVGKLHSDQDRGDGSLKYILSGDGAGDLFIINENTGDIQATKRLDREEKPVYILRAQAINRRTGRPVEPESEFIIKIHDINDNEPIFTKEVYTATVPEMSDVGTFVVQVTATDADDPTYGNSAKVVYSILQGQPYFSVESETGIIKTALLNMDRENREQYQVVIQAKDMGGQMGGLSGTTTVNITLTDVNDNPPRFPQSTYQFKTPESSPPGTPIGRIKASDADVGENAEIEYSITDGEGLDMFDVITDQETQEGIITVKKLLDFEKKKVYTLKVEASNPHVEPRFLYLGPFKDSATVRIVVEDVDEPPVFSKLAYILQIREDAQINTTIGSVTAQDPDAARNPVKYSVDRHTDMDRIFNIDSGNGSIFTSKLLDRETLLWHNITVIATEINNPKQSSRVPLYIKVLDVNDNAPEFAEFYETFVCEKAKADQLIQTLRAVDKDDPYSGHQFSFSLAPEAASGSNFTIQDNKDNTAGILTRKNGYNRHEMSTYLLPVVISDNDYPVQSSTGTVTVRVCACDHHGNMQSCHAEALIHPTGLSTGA
The assay can be described thus: BLI (Octet), antibody on AHC sensor, antigen 3.13-100 nM, 1:1 model. The method, then: (§3) Binding affinities of CL069707-H1L1 and Ch069707 were measured using the Octet® system based on Bio-Layer Interferometry (BLI) technique. Antibodies were loaded to AHC (Anti-hIgG Fc Capture) at 100 nM concentration. […] From the six different binding curves obtained from each antigen concentration, binding constants (KD) were calculated based on the 1:1 binding model. CL069707-H1L1 and Ch069707 binds to human CDH6-ECD-His antigen with similar affinity. CL069707-H1L1 binds to human CDH6-ECD-His and cyno monkey CDH6-ECD-His antigens with similar affinity.
(Biolayer interferometry detects binding as a change in optical thickness at a sensor tip.)

Assay [2] concerns the target T2, Human CDH6-ECD-His. The assay is described as above. The method, then: as §3

B1: CL069707-H1L1 (antibody, human IgG1, kappa, V domains shown)
VH: EVQLVESGGGLVQPGGSLRLSCAASGFTFTTYAMNWVRQAPGKGLEWVARIRIKNNNYATYYADSVTDRFTISRDDSKNSLYLQMNSLKTEDTAVYYCVRPDYGNYGLAYWGQGTLVTVSS
VL: DIQLTQSPSSLSASVGDRVTITCSASSSISSHYLHWYQQKPGKSPKLLIYRSFYLASGVPSRFSGSGSGTDFTLTISSLQPEDFATYYCQQDIVPLTFGQGTKLEIKR
notes: Humanized IgG1/kappa, produced in 293 cells; also called humanized CL069707-H1L1
Turning to B1, the “EC50 (read off the curve)” value in the assay with rat CDH6-ECD-His and in the assay with Human CDH6-ECD-His [1] was around 0.1 nM throughout. Also, the Kd was 2.69 nM in the assay with cyno monkey CDH6-ECD-His and 3.08 nM with Human CDH6-ECD-His [2].

One may read the EC50 (read off the curve) as the concentration at which the effect is half-maximal. The Kd is the free concentration of one partner at which half of the binding sites on the other are occupied at equilibrium, for simple one-to-one binding.
